Among the data in PMC5707476, “Enzyme repurposing of a hydrolase as an emergent peroxidase upon metal binding” (Chemical Science, 2015) are Km, kcat and kcat/Km values, retold here.

Changes are numbered by the printed parent chain. In names and notes the source's numbering stands.

Usually Km stands for the substrate concentration at which the rate is half of its maximum. As a reminder, the kcat/Km is the turnover number divided by the Michaelis constant.

Substrate in this series: COc1cc(-c2ccc(N)c(OC)c2)ccc1N
The experiment in a line: purified protein. The class given is biochemical, Mycolicibacterium smegmatis. Conditions: 6.6 mM t-BuOOH, 4.5 μM Cu(II).

Where [1] appears, read: 6-PGLac (parent), 1.25 μM protein, MES pH 6.5, 150 mM NaCl, 25 °C, free copper background subtracted.
Setting [2] is: D131N (reversion of parent N131D = natural sequence), 1.25 μM protein, MES pH 6.5, 150 mM NaCl, 25 °C, free copper background subtracted.
[3] abbreviates: Y69F on the N131D parent, MES pH 6.5, 25 °C.
[4] abbreviates: Y69W on the N131D parent, MES pH 6.5, 25 °C.
The mark [5] stands for this setting: Y69L on the N131D parent, MES pH 6.5, 25 °C.
Where [6] appears, read: H9A on the N131D parent, MES pH 6.5, 25 °C.
The mark [7] stands for this setting: H95A on the N131D parent, MES pH 6.5, 25 °C.

B1: 6-phosphogluconolactonase (6-PGLac; Cu·6-PGLac) (Mycolicibacterium smegmatis MC2 155; N131D) (protein)
chain: MSDTVIERHADTAALVAAAGDRLVDAISSAIGERGQATIVLTGGGTGIGLLKRVRERSGEIDWSKVHIYWGDERFVPQDDDERNDKQAREALLDHIGIPPVNVHAMAASDGEFGDDLEAAAAGYAQLLSADFDSSVPGFDVHLLGMGGEGHVNSLFPDTDAVRETERLVVGVSDSPKPPPRRITLTLPAVQNSREVWLVVSGEAKADAVAAAVGGADPVDIPAAGAVGRERTVWLVDEAAAAKL
notes: Strep-tag II, expressed in E. coli, purified, loaded with Cu(II)
On to B1, for which, under setting [1], the Km came out at 11 ± 3 µM, the kcat is given as 78 ± 4 × 10^-3 s^-1 and the kcat/Km came out at 6900 ± 2000 M⁻¹ s⁻¹. For the same protein, under setting [2], the Km was 21 ± 6 µM, the kcat is listed as 150 ± 10 × 10^-3 s^-1 and the kcat/Km was 7200 ± 2000 M⁻¹ s⁻¹.

B2: 6-phosphogluconolactonase (6-PGLac; Cu·6-PGLac) (Mycolicibacterium smegmatis MC2 155; N131D/Y69F) (protein)
chain: B1 chain with Y69F
notes: as for B1
B2: under setting [3], the Km was determined as 36 ± 8 µM, the kcat is on record as 100 ± 7 × 10^-3 s^-1 and the kcat/Km turned out to be 2900 ± 700 M⁻¹ s⁻¹.

B3: 6-phosphogluconolactonase (6-PGLac; Cu·6-PGLac) (Mycolicibacterium smegmatis MC2 155; N131D/Y69W) (protein)
chain: B1 chain with Y69W
notes: as for B1
Consider B3, for which, under setting [4], the Km was found to be 4.8 ± 2 µM, the kcat was 33 ± 2 × 10^-3 s^-1 and the kcat/Km amounted to 6900 ± 3000 M⁻¹ s⁻¹.

B4: 6-phosphogluconolactonase (6-PGLac; Cu·6-PGLac) (Mycolicibacterium smegmatis MC2 155; N131D/Y69L) (protein)
chain: B1 chain with Y69L
notes: as for B1
Turning to B4, under setting [5], the Km was 82 ± 10 µM, the kcat is recorded as 490 ± 30 × 10^-3 s^-1 and the kcat/Km was 5900 ± 900 M⁻¹ s⁻¹.

B5: 6-phosphogluconolactonase (6-PGLac; Cu·6-PGLac) (Mycolicibacterium smegmatis MC2 155; H9A/N131D) (protein)
chain: B1 chain with H9A
notes: as for B1
B5: under setting [6], the Km was 12 ± 5 µM, the kcat was 80 ± 6 × 10^-3 s^-1 and the kcat/Km was 6500 ± 3000 M⁻¹ s⁻¹.

B6: 6-phosphogluconolactonase (6-PGLac; Cu·6-PGLac) (Mycolicibacterium smegmatis MC2 155; H95A/N131D) (protein)
chain: B1 chain with H95A
notes: as for B1
Take B6: under setting [7], the Km was found to be 17 ± 5 µM, the kcat was 80 ± 6 × 10^-3 s^-1 and the kcat/Km came to 4600 ± 2000 M⁻¹ s⁻¹.
